# Assay results from PMC4459817, “Vasculotide reduces endothelial permeability and tumor cell extravasation in the absence of binding to or agonistic activation of Tie2” (EMBO Molecular Medicine, 2015).
# Biological target: T1, human Tie2-Fc (hTie2-Fc) (Homo sapiens, UniProt Q02763)
# T1 construct: Purified human or mouse Tie2-Fc (i.e., Fc-conjugated extracellular domains of Tie2); purchased R&D Systems 313-TI-100
# Test: SPR binding to human Tie2-Fc
# Details: 37°C; for binding to Tie2-Fc: human Tie2-Fc, 0.625–10 nM, pH 7.4, Fig9C
# Source text: To better understand the difficulties we had in observing Tie2 activation by VT, we sought to characterize the binding affinity and kinetics of VT to Tie2. Purified human or mouse Tie2-Fc (i.e., Fc-conjugated extracellular domains of Tie2) were first coupled to protein A sepharose beads for pull-down experiments (Fig9A and B) or immobilized on a Biacore CM5 sensor chip for surface plasmon resonance (SPR) experiments (Fig9C and Supplementary Fig S3).
# Figure 9 Binding of Vasculotide vs. Ang1 variants to the extracellular domain of Tie2 • A–B Pull-down assay. Input ligands—rhAng1 (A) and VT (B)—were incubated with either protein A sepharose beads only, bead-conjugated mouse Tie2-Fc (mTie2), or bead-conjugated human Tie2-Fc (hTie2). […] The ‘unbound’ fraction is 7% of residual/free ligands remaining in the supernatant. • C Quantitative kinetics analysis by SPR. All analytes were run at increasing concentrations of 0.625, 1.25, 2.5, 5, and 10 nM, at 37°C and pH 7.4. […] Source data are available online for this figure. […]
# 9. Tie2 Receptor-Binding Assays
# Vasculotide (VT) was manufactured by Bachem UK Ltd. T7c (CHHHRHSF) was synthesized by Genscript (Piscataway, NJ, USA). PEG-Cys consists of a single cysteine reacted to each of the 4 arms of PEG-maleimide (Sunbright PTE-100MA, NOF Corporation, Tokyo, Japan). BowAng1 (Ang1-Fd-Fc-Fd) was made and provided by Regeneron Pharmaceuticals, Inc. (Tarrytown, NY, USA). COMP-Ang1 was purified in the Kerbel lab from serum-free culture media conditioned by an engineered CHO cell line provided by Dr. Gou Young Koh (KAIST), according to published protocols (Hwang et al, 2008).
# Recombinant human Angiopoietin-1 (rhAng1) and Vascular Endothelial Growth Factor ( rhVEGF) were […]
# purchased from R&D Systems. […]
# (structural/molecular weight control for VT), and 40 μL of supernatant (7% of residual/unbound ligand) – were similarly boiled in SDS sample buffer. Ang1 samples and controls were resolved by 7.5% polyacrylamide gel electrophoresis (PAGE), electroblotted onto PVDF membranes, and probed with an anti-Ang1 antibody (R&D Sytems, AF923; diluted 1:2,000 in TBS supplemented with 7% BSA and 0.1% Tween-20) at 75kDa (reduced monomers). VT samples and controls were resolved by 17% PAGE, blotted onto PVDF membranes, and probed with an anti-PEG antibody (Silver Lake Research, CH2074; diluted 1:4,000 in TBS supplemented with 7% BSA and 0.05% CHAPS*) at higher “apparent” molecular weights than the expected 14 and 10kDa due to their polymeric nature and large hydrodynamic radii (Zheng et al, 2007). *Note: non-ionic, PEO-based, polymer detergents were avoided at these steps as they cross-react with the anti-PEG antibody used for detecting VT.
# Surface Plasmon Resonance (SPR) Experiments: The binding of analytes – VT, T7c peptide, PEG-Cys, rhAng1, COMP-Ang1, BowAng1, and rhVEGF – to the extracellular domain of Tie2 were […]
# investigated by SPR using a Biacore T200 Instrument (GE Healthcare). For qualitative binding analysis, mTie2-Fc was dissolved in 10mM acetate buffer (pH 4.5) and immobilized at high density onto a CM5 sensor chip using amine coupling chemistry as described by the manufacturer to a response of 11,500RU.
# Binding analysis were performed by exposure of immobilized mTie2-Fc to the analytes diluted in HBS-EP (0.01M HEPES pH 7.4, 0.15M NaCl, 3mM EDTA, 0.005% v/v Tween-20), which was supplemented with 1mg/mL carboxymethyl dextran (NSB reducer, GE Healthcare) to reduce non-specific binding to the sensor chip. Analytes were injected at 30μL/min (association time 120s, dissociation time 120s) at 37 °C, and the chip surface was regenerated each cycle by a 60s pulse of 4M MgCl2. To quantitatively determine the kinetic properties of the interaction (KD, kd, ka) and avoid mass transport limitations, mTie2-Fc and hTie2-Fc were immobilized at low density (1,000-1,200RU) onto separate flow cells of the CM5 chip using amine coupling chemistry. Kinetic analyses were performed using a single-cycle kinetic […]
# [1] = Biacore T200, single-cycle kinetics, 1:1 model, 0.625–10 nM analyte, pH 7.4 (HBS-EP), Fig9C
# T1 sequence (Q02763 23-748 limits assumed): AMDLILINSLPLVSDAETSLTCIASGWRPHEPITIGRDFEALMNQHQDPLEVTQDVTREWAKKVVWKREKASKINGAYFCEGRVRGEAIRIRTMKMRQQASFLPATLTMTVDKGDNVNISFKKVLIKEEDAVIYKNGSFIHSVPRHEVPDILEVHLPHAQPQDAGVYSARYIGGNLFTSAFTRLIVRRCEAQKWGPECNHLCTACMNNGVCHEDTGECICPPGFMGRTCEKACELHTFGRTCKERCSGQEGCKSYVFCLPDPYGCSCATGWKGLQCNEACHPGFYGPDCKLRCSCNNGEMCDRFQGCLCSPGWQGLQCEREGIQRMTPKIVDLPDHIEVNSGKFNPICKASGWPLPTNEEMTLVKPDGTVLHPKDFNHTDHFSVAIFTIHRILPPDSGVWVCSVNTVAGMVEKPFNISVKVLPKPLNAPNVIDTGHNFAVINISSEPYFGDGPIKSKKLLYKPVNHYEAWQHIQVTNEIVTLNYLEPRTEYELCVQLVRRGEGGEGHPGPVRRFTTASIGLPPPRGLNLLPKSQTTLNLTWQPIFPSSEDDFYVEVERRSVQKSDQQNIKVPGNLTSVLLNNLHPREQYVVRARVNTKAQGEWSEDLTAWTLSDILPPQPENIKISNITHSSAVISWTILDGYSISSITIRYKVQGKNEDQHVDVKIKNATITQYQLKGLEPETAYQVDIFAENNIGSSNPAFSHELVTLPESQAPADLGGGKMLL
Molecule,binding to Tie2-Fc (listed as VT),"Off-rate, Kd [1]","On-rate, Ka [1]",binding to Tie2-Fc
"CHHHRHSF [Vasculotide, 4-armed maleimide-functionalized polyethylene glycol (PEG) backbone to link together four cysteine-capped T7 peptides, that is, CHHHRHSF]",no binding to Tie2-Fc was detectable,,,
"recombinant human Ang1 (rhAng1) (ligand, UniProt Q15389 16-498, looked up, angiopoietin-1, human, recombinant; also called angiopoietin-1; source: bought: R&D Systems (named for the Boyden chamber experiments)) HIGCSNQRRSPENSGRRYNRIQHGQCAYTFILPEHDGNCRESTTDQYNTNALQRDAPHVEPDFSSQKLQHLEHVMENYTQWLQKLENYIVENMKSEMAQIQQNAVQNHTATMLEIGTSLLSQTAEQTRKLTDVETQVLNQTSRLEIQLLENSLSTYKLEKQLLQQTNEILKIHEKNSLLEHKILEMEGKHKEELDTLKEEKENLQGLVTRQTYIIQELEKQLNRATTNNSVLQKQQLELMDTVHNLVNLCTKEGVLLKGGKREEEKPFRDCADVYQAGFNKSGIYTIYINNMPEPKKVFCNMDVNGGGWTVIQHREDGSLDFQRGWKEYKMGFGNPSGEYWLGNEFIFAITSQRQYMLRIELMDWEGNRAYSQYDRFHIGNEKQNYRLYLKGHTGTAGKQSSLILHGADFSTKDADNDNCMCKCALMLTGGWWFDACGPSNLNGMFYTAGQNHGKLNGIKWHYFKGPSYSLRSTTMMIRPLDF",,0.00029 s⁻¹,1.4e+06 M⁻¹ s⁻¹,bound strongly
